Data as given in US20110166064A1.

Target: Insulin-like Growth Factor I Receptor (IGF-1R) (UniProt P08069)
Experiment: competitive displacement of 125I-IGF-I from IGF-1R, FIG. 9B

Sequence of Insulin-like Growth Factor I Receptor (IGF-1R) (P08069 31-1367 limits assumed): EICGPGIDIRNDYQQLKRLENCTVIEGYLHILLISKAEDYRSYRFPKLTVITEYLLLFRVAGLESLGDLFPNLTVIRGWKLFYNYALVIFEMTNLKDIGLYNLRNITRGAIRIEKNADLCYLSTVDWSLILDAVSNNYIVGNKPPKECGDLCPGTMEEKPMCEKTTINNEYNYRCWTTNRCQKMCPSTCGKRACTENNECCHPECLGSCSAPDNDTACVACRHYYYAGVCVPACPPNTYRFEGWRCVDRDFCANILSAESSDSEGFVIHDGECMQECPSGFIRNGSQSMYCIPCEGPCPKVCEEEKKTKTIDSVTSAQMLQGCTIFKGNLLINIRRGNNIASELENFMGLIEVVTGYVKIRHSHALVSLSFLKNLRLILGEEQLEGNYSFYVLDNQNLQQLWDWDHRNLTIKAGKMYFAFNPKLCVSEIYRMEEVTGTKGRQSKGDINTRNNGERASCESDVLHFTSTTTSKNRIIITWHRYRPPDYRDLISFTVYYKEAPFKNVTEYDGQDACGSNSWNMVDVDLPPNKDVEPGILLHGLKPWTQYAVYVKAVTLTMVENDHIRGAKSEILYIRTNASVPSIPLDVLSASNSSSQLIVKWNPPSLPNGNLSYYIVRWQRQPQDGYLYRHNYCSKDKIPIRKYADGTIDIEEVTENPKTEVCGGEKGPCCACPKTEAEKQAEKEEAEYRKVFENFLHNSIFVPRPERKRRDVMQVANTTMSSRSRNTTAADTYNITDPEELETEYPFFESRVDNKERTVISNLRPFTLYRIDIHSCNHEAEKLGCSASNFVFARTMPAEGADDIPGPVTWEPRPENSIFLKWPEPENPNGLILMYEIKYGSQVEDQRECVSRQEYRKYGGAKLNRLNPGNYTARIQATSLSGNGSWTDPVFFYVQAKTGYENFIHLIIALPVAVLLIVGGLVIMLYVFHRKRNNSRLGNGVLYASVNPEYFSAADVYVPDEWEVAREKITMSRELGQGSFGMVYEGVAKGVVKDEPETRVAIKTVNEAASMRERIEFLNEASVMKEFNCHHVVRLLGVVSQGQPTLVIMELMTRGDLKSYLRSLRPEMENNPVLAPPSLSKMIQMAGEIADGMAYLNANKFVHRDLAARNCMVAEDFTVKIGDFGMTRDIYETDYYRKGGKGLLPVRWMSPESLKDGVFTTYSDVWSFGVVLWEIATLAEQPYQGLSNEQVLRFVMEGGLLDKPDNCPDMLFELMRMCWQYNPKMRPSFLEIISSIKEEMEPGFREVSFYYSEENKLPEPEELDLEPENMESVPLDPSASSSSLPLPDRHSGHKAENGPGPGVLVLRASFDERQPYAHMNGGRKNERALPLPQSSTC

“4Cl-Phe^B24-KP-insulin (ligand; para-monochloro-phenylalanine (4Cl-Phe) at B24; other documents disagree on this pair)” was tested, and the fold reduction of cross-binding relative to KP-insulin or wild-type insulin was 3 fold.
